Laboratory results as given in IntAct's records for PubMed 17875931.

Target: itf2_human TCF4 (UniProt P15884)
Sequence (P15884 whole entry): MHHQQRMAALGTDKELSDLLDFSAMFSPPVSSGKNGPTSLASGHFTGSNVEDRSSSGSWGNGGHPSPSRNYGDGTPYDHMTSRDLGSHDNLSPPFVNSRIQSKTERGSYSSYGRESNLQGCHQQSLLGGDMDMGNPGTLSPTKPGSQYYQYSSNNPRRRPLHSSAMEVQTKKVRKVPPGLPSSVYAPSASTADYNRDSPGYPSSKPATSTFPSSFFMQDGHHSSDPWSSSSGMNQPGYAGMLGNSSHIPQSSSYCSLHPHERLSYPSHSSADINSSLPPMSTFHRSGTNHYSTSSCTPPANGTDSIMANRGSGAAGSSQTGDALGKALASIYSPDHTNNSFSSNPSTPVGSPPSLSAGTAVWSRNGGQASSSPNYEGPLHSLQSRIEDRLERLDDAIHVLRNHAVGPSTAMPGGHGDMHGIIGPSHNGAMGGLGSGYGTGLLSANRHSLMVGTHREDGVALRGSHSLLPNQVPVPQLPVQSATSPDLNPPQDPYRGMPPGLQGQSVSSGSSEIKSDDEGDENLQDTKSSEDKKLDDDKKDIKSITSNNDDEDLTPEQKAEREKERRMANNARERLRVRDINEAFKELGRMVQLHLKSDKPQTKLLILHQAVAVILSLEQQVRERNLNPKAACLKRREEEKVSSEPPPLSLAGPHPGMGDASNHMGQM

Transcription factor SOX-17 (Mus musculus), Q61473 G103R, sequence (Q61473 whole entry G103R): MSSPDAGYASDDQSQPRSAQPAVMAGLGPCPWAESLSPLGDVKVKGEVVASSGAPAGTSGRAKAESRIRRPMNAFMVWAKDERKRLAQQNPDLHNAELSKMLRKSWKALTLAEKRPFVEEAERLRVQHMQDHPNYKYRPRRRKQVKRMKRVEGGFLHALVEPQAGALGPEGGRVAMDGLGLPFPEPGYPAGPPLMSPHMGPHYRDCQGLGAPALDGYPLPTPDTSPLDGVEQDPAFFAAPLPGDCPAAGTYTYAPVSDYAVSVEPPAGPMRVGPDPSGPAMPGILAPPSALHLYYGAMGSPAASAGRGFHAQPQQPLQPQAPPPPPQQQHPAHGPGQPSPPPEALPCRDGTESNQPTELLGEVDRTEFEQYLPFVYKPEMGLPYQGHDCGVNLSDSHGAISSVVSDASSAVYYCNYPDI

Transcription factor SOX-17 (Mus musculus), Q61473 G103R
effect of a mutation on the interaction: disrupting interaction
